Measurements from patent US20210101970A1.

What was measured:
[1] = molecular target: human CXCR5 (human) (UniProt P32302); assay: FACS on cells expressing the CXCR5 construct
[2] = molecular target: mouse CXCR5 (mouse) (UniProt Q04683); assay: FACS on cells expressing the CXCR5 construct
[3] = molecular target: human CXCR5 (human) (UniProt P32302); assay: cell-based or functional assay

human CXCR5 (human), sequence (P32302 whole entry): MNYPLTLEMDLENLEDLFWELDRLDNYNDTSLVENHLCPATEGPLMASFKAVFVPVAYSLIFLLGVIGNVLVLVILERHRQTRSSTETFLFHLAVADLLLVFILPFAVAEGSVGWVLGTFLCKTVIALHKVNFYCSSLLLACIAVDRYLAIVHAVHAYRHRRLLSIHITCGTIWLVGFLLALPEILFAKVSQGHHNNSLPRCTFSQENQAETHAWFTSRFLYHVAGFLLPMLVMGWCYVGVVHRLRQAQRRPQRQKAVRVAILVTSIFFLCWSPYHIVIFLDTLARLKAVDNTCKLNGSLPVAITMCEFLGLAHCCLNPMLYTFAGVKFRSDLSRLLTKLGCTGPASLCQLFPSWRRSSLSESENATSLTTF
mouse CXCR5 (mouse), sequence (Q04683 whole entry): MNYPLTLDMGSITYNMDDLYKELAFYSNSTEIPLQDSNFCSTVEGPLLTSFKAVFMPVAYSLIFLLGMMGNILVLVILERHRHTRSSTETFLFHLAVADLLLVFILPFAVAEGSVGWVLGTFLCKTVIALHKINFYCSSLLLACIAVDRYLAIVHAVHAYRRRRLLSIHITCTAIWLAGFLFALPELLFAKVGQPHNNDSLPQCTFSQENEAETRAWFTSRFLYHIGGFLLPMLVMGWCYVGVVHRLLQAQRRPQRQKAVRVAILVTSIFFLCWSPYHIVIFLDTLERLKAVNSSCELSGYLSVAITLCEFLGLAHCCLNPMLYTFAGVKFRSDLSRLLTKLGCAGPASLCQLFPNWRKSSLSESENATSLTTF

| GMFI [1] | GMFI [2] | IC80, inhibition of forskolin-triggered cAMP production [3] | Substance |
| --- | --- | --- | --- |
| 18600 GMFI | 1040 GMFI |  | rabbit anti-human CXCR5 (catalog ab46218, Abcam) (antibody) |
| 2460 GMFI | 12500 GMFI |  | rat anti-mouse CXCR5 (catalog MAB6198, R&D systems) (antibody) |
|  |  | 600 pM | recombinant hCXCL13 (from UniProt O43927 23-109) (ligand) |
